Tests used:
CD32a = CD32a (UniProt P12318); assay: solution competition SPR (Biacore)
[1] = molecular target: VLA receptors (alpha-4 integrin) of cynomolgus monkeys in vivo (cynomolgus monkey); assay: free receptor measured in cynomolgus monkeys after a single IV dose
[2] = molecular target: VLA receptors (alpha-4 integrin) of cynomolgus monkeys in vivo (cynomolgus monkey); assay: model-estimated (direct Emax PKPD model) EC50 for the formation of drug-bound VLA in cynomolgus monkeys
[3] = molecular target: VLA-4 on tumor cell lines (UniProt P13612); assay: inhibition of adhesion of Mec1 cells to fibronectin-coated wells
[4] = molecular target: VLA-4 on tumor cell lines (UniProt P13612); assay: flow cytometry on KG1 cells (AML)
[5] = molecular target: VLA-4 on tumor cell lines (UniProt P13612); assay: inhibition of adhesion of HL60 cells to fibronectin-coated wells
[6] = molecular target: VLA-4 on tumor cell lines (UniProt P13612); assay: flow cytometry on U266 cells (MM)
[7] = molecular target: VLA-4 on tumor cell lines (UniProt P13612); assay: inhibition of adhesion of H929 cells to VCAM1-Ig-coated wells
[8] = molecular target: VLA-4 on tumor cell lines (UniProt P13612); assay: inhibition of adhesion of U266 cells to fibronectin-coated wells
[9] = molecular target: VLA-4 on tumor cell lines (UniProt P13612); assay: inhibition of adhesion of JM1 cells to VCAM1-Ig-coated wells
[10] = molecular target: α4β1 (VLA-4) as used in the competition ELISAs (UniProt P13612); assay: competition ELISA; mixture of mouse HP1/2 with test mAb binding to integrin
[11] = molecular target: VLA-4 on tumor cell lines (UniProt P13612); assay: flow cytometry on Mec1 cells (CLL)
[12] = molecular target: VLA-4 on tumor cell lines (UniProt P13612); assay: flow cytometry on H929 cells (MM)
[13] = molecular target: VLA-4 on tumor cell lines (UniProt P13612); assay: inhibition of adhesion of KG1 cells to fibronectin-coated wells
[14] = molecular target: VLA-4 on tumor cell lines (UniProt P13612); assay: flow cytometry on HL60 cells (AML)
[15] = molecular target: VLA-4 on tumor cell lines (UniProt P13612); assay: flow cytometry on JM1 cells (CLL)
[16] = molecular target: VLA-4 on tumor cell lines (UniProt P13612); assay: inhibition of adhesion of Mec1 cells to VCAM1-Ig-coated wells
[17] = molecular target: VLA-4 on tumor cell lines (UniProt P13612); assay: inhibition of adhesion of KG1 cells to VCAM1-Ig-coated wells
[18] = molecular target: α4β1 (VLA-4) as used in the competition ELISAs (UniProt P13612); assay: competition ELISA; integrin preincubated with test mAb, then murine HP1/2 as competing reagent
[19] = molecular target: VLA-4 on tumor cell lines (UniProt P13612); assay: inhibition of adhesion of HL60 cells to VCAM1-Ig-coated wells
[20] = molecular target: VLA-4 on tumor cell lines (UniProt P13612); assay: inhibition of adhesion of U266 cells to VCAM1-Ig-coated wells
[21] = molecular target: VLA-4 on tumor cell lines (UniProt P13612); assay: inhibition of adhesion of H929 cells to fibronectin-coated wells

Sequence of TYSABRI (natalizumab) (antibody) (VH): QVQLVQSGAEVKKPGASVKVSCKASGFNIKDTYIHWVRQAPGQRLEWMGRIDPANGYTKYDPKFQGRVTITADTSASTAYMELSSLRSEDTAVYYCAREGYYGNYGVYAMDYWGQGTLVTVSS
Sequence of TYSABRI (natalizumab) (antibody) (VL): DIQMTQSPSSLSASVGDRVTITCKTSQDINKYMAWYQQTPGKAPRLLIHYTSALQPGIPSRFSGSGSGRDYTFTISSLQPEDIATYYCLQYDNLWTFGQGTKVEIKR

## EAG2379 (hu5c8 IgG1 T299E) (antibody)
CD32a
  IC50: 1280 µM

## TYSABRI (natalizumab) (antibody)
[1]
  receptor occupancy: > 90%
[2]
  EC50: 6.4 ng/mL

## HuHP1/2 (antibody)
[3]
  IC50: 0.0001 µM
[4]
  EC50: 0.00019 µM
[5]
  IC50: 0.00016 µM
[6]
  EC50: 0.00046 µM
[7]
  IC50: 0.00135 µM
[8]
  IC50: 0.00014 µM
[9]
  IC50: 0.00012 µM
[10]
  IC50: 0.00141 µM
[11]
  EC50: 0.00011 µM
[12]
  EC50: 0.00091 µM
[13]
  IC50: 0.05 nM
[14]
  EC50: 0.00011 µM
[15]
  EC50: 0.00021 µM
[16]
  IC50: 0.07 nM
[17]
  IC50: 0.0001 µM
[18]
  IC50: 0.00105 µM
[19]
  IC50: 0.00091 µM
[20]
  IC50: 0.00013 µM
[21]
  IC50: 0.00021 µM
